Measurements as given in article PMC9458440, “Cryo-EM structure of the Smc5/6 holo-complex” (Nucleic Acids Research, 2022).

Biological target: T1, Smc6 (Walker B mutant E1048Q), subunit of the S. cerevisiae Smc5/6 holo-complex (S. cerevisiae, UniProt Q12749 1-1114, E1048Q)
T1 construct: Smc6, Saccharomyces cerevisiae; the model holds amino acids 74-213, 215-290, 292-370, 387-431, 436-805, 814-919, 922-1104; The complex was crosslinked with BS3; also called ν-SMC; source: recombinant, expressed in insect cells, purified as holo-complex (Superose 6 SEC), BS3-crosslinked
T1 sequence: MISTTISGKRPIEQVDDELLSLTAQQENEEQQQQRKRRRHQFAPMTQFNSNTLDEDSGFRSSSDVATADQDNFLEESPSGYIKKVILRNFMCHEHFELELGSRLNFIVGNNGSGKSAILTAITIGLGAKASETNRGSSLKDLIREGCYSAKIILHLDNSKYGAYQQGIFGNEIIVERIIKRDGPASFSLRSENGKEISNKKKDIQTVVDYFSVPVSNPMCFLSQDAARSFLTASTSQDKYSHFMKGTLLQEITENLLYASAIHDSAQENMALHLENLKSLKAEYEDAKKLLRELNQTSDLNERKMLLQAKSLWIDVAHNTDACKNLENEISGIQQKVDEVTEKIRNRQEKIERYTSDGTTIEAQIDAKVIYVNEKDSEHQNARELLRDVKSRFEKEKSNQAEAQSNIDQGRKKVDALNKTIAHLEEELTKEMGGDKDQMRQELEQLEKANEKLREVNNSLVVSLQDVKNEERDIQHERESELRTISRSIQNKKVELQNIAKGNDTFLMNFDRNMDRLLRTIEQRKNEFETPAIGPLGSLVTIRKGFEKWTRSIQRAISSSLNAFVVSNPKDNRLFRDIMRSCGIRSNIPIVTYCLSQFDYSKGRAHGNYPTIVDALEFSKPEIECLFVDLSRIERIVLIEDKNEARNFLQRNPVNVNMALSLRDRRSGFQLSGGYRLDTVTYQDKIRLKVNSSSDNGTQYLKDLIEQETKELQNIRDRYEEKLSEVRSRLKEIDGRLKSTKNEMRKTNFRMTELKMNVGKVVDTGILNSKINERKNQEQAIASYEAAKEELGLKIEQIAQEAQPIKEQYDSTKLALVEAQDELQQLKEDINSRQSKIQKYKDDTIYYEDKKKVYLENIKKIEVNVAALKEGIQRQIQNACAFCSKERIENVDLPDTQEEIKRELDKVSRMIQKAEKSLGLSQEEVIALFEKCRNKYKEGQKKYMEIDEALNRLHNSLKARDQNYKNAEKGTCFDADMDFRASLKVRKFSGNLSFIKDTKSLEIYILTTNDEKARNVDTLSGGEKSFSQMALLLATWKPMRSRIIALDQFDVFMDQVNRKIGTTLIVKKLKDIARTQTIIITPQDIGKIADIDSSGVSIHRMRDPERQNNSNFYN
Test: cryo-EM structure; BS3-crosslinked six-subunit holo-complex, apo / non-liganded; fractions from Superose 6 diluted to 20 mM HEPES.NaOH pH 7.5, 50 mM NaCl, 0.5 mM TCEP, 0.1 mg/ml; maps at 10.8 Å (holo-complex), 8.53 Å (hinge/arm) and 6.5 Å (head-only); pseudo-atomic model built from homology and AlphaFold models
Conditions: both partners purified

binding result: binds
B1: Smc5 (Walker B mutant E1015Q), subunit of the S. cerevisiae Smc5/6 holo-complex (natural protein)
chain: MTSLIDLGRYVERTHHGEDTEPRSKRVKIAKPDLSSFQPGSIIKIRLQDFVTYTLTEFNLSPSLNMIIGPNGSGKSTFVCAVCLGLAGKPEYIGRSKKVEDFIKNGQDVSKIEITLKNSPNVTDIEYIDARDETIKITRIITRSKRRSDYLINDYQVSESVVKTLVAQLNIQLDNLCQFLSQERVEEFARLKSVKLLVETIRSIDASLLDVLDELRELQGNEQSLQKDLDFKKAKIVHLRQESDKLRKSVESLRDFQNKKGEIELHSQLLPYVKVKDHKEKLNIYKEEYERAKANLRAILKDKKPFANTKKTLENQVEELTEKCSLKTDEFLKAKEKINEIFEKLNTIRDEVIKKKNQNEYYRGRTKKLQATIISTKEDFLRSQEILAQTHLPEKSVFEDIDIKRKEIINKEGEIRDLISEIDAKANAINHEMRSIQRQAESKTKSLTTTDKIGILNQDQDLKEVRDAVLMVREHPEMKDKILEPPIMTVSAINAQFAAYLAQCVDYNTSKALTVVDSDSYKLFANPILDKFKVNLRELSSADTTPPVPAETVRDLGFEGYLSDFITGDKRVMKMLCQTSKIHTIPVSRRELTPAQIKKLITPRPNGKILFKRIIHGNRLVDIKQSAYGSKQVFPTDVSIKQTNFYQGSIMSNEQKIRIENEIINLKNEYNDRKSTLDALSNQKSGYRHELSELASKNDDINREAHQLNEIRKKYTMRKSTIETLREKLDQLKREARKDVSQKIKDIDDQIQQLLLKQRHLLSKMASSMKSLKNCQKELISTQILQFEAQNMDVSMNDVIGFFNEREADLKSQYEDKKKFVKEMRDTPEFQSWMREIRSYDQDTKEKLNKVAEKYEEEGNFNLSFVQDVLDKLESEIAMVNHDESAVTILDQVTAELRELEHTVPQQSKDLETIKAKLKEDHAVLEPKLDDIVSKISARFARLFNNVGSAGAVRLEKPKDYAEWKIEIMVKFRDNAPLKKLDSHTQSGGERAVSTVLYMIALQEFTSAPFRVVDQINQGMDSRNERIVHKAMVENACAENTSQYFLITPKLLTGLHYHEKMRIHCVMAGSWIPNPSEDPKMIHFGETSNYSFD
notes: Smc5, Saccharomyces cerevisiae; the model holds amino acids 35-390, 394-882, 884-1068; The complex was crosslinked with BS3; also called κ-SMC; source: recombinant, expressed in insect cells, purified as holo-complex (Superose 6 SEC), BS3-crosslinked
